Assay results: article PMC4220489 (Nature Communications, 2014)

T1: recombinant human IL-23 (p19-His co-expressed with p40 in HEK-293T) (human, UniProt Q9NPF7 20-189; P29460 23-328, N-linked glycans limited by kifunensine and trimmed with EndoH | C-mannosylated Trp319; N-linked glycans limited by kifunensine and trimmed with EndoH)
T1 chain 1: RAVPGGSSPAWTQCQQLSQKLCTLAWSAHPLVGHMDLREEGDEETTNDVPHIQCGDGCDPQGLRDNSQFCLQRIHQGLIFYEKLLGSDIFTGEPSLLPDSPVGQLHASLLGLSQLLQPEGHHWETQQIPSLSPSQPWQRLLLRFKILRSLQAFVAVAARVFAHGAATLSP
T1 chain 2: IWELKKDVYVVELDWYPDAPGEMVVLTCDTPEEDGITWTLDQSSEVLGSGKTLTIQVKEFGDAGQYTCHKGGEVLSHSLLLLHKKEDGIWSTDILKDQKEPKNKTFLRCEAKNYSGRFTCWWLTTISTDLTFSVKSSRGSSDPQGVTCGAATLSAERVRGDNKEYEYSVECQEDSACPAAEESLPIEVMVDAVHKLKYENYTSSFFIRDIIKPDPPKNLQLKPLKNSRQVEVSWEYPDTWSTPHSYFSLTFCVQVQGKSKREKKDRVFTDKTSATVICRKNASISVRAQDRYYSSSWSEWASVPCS

T2: IL-12 subunit beta (p40), as in the recombinant human IL-23 of the crystal structure (human, UniProt P29460 23-328, C-mannosylated Trp319; N-linked glycans limited by kifunensine and trimmed with EndoH)
T2 construct: signal peptide in the construct; IL-12 subunit beta (p40), human, residues 1-328, cDNA as NCBI NM_002187.2 (silent codon change at Asn248); The p40 chain of m3, written alone for the pairs of the crystal structure; also called IL-23 p40; source: HEK-293T, co-transfected with p19-His, purified as IL-23 (Talon IMAC, SEC)
T2 sequence (looked up): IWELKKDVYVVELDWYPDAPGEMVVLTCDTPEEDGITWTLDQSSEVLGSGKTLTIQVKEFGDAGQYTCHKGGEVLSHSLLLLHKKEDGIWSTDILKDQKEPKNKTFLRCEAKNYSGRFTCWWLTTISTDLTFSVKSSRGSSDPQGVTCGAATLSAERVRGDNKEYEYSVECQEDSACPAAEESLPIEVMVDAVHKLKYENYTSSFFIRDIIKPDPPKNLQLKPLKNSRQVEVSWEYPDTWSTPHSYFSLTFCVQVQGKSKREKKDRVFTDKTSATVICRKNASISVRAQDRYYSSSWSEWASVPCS

B1: MA12_B2fC Alphabody (His-tag removed, cysteine blocked) (designed binder)
chain: SIQEIQKEIAQIQAVIAGIQKYIYTMTGGSGGGSGGGSGGGSGMSIEEIQKQIAAIQCQIAAIQKQIYAMTGGSGGGSGGGSGGGSGMSIEEIQKQIAAIQEQILAIYKQIMAMVT
modifications: free cysteine blocked with iodoacetamide
B2: IL-23 subunit alpha (p19), as in the recombinant human IL-23 of the crystal structure (natural protein, UniProt Q9NPF7 20-189, looked up)
chain: RAVPGGSSPAWTQCQQLSQKLCTLAWSAHPLVGHMDLREEGDEETTNDVPHIQCGDGCDPQGLRDNSQFCLQRIHQGLIFYEKLLGSDIFTGEPSLLPDSPVGQLHASLLGLSQLLQPEGHHWETQQIPSLSPSQPWQRLLLRFKILRSLQAFVAVAARVFAHGAATLSP
modifications: N-linked glycans limited by kifunensine and trimmed with EndoH
notes: signal peptide in the construct; IL-23 subunit alpha (p19), human, residues 1-189, cDNA as NCBI NM_016584.2; residue numbers as in UniProt; The p19 chain of m3, written alone for the pairs of the crystal structure; also called IL-23 p19; source: HEK-293T, co-transfected with p40, purified as IL-23 (Talon IMAC, SEC)

Key:
[1] = target: T1, recombinant human IL-23 (p19-His …); experiment: SPR
[2] = target: T1, recombinant human IL-23 (p19-His …); experiment: SPR
[3] = target: recombinant human IL-23 (p19-His co-expressed with p40 in HEK-293T) (human) (UniProt Q9NPF7); experiment: ITC; VP-ITC, 30 °C, 20 mM Hepes, 150 mM NaCl, pH 7.4; IL-23 4.9 μM in the cell, MA12 53.2 μM in the syringe; one binding site model; apparent
[4] = target: T2, IL-12 subunit beta (p40), as in the …; experiment: crystal structure; IL-23:MA12_B2fC complex, two crystal forms (PEG 3,350 with Na2SO4 or potassium formate), molecular replacement with PDB 3DUH; settings: both partners purified

Row | Binder | koff [1] [s⁻¹] | Kd [2] [nM] | Kd [3] [nM] | stoichiometry N [3] | binding result [4]
1 | B1 | 0.000122 | 0.463 | 0.35 | 1 | –
2 | B2 | – | – | – | – | binds
